Tests used:
PARP1;HPF1 = PARP1;HPF1 (Homo sapiens?;Homo sapiens?, UniProt P09874;Q9NWY4 1-1014;1-346, |); assay: fluorescence polarization (release of labelled DNA on autoPARylation); 2 uM HPF1, PARPi; DNA released by 2 mM NAD+; 50 mM Tris-HCl pH 8.0, 50 mM NaCl, 1 mM MgCl2, 0.1 mM EDTA, 0.01% IGEPAL; temperature not stated; conditions: protein: recombinant;recombinant; (nickel column); copies: 1;1; label: fluorescein (5') in the FP DNA-release assay; blunt
PARP2;HPF1 = PARP2;HPF1 (Homo sapiens?;Homo sapiens?, UniProt Q9UGN5;Q9NWY4 1-583;1-346, |); assay: as above; conditions: protein: recombinant;recombinant; (nickel column); copies: 1;1; label: fluorescein (5') in the FP DNA-release assay; blunt
PARP1 = PARP1 (UniProt P09874 1-1014); assay: fluorescence polarization (release of labelled DNA on autoPARylation); PARPi present or absent; DNA released by 2 mM NAD+, retained without NAD+; 50 mM Tris-HCl pH 8.0, 50 mM NaCl, 1 mM MgCl2, 0.1 mM EDTA, 0.01% IGEPAL; temperature not stated; conditions: protein: recombinant; label: fluorescein (5') in the FP DNA-release assay; blunt
PARP2 = PARP2 (UniProt Q9UGN5 1-583); assay: as above; conditions: protein: recombinant; label: fluorescein (5') in the FP DNA-release assay; blunt

Measured: binding result

PARP2, sequence (Q9UGN5 whole entry): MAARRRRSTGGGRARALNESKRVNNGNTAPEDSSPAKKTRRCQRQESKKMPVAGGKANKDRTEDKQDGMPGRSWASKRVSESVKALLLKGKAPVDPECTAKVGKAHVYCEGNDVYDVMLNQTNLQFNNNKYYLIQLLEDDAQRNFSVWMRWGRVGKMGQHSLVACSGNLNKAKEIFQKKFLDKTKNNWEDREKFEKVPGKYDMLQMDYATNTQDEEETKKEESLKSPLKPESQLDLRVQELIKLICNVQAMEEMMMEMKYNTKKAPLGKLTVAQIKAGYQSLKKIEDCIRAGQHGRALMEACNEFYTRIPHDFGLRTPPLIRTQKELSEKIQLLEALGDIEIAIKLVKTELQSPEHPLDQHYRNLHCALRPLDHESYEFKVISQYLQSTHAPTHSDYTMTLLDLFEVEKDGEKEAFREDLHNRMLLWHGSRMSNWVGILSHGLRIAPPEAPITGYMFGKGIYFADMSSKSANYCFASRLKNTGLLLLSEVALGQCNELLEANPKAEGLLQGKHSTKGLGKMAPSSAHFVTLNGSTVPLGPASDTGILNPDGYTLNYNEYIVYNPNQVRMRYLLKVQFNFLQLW
PARP2;HPF1, sequence (Q9UGN5 whole entry, chain 1 of 2): as the sequence (Q9UGN5 whole entry) above
PARP2;HPF1, sequence (Q9NWY4 whole entry, chain 2 of 2): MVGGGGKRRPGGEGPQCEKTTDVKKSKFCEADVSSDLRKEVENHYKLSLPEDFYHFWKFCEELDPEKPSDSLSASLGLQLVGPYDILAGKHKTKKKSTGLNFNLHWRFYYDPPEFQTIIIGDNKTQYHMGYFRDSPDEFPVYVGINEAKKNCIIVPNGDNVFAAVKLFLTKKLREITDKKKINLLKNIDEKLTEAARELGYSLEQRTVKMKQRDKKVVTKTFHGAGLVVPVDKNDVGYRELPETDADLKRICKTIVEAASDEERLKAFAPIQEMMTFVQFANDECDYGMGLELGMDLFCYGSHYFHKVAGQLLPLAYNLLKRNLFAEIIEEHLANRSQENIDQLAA
PARP1;HPF1, sequence (P09874 whole entry, chain 1 of 2): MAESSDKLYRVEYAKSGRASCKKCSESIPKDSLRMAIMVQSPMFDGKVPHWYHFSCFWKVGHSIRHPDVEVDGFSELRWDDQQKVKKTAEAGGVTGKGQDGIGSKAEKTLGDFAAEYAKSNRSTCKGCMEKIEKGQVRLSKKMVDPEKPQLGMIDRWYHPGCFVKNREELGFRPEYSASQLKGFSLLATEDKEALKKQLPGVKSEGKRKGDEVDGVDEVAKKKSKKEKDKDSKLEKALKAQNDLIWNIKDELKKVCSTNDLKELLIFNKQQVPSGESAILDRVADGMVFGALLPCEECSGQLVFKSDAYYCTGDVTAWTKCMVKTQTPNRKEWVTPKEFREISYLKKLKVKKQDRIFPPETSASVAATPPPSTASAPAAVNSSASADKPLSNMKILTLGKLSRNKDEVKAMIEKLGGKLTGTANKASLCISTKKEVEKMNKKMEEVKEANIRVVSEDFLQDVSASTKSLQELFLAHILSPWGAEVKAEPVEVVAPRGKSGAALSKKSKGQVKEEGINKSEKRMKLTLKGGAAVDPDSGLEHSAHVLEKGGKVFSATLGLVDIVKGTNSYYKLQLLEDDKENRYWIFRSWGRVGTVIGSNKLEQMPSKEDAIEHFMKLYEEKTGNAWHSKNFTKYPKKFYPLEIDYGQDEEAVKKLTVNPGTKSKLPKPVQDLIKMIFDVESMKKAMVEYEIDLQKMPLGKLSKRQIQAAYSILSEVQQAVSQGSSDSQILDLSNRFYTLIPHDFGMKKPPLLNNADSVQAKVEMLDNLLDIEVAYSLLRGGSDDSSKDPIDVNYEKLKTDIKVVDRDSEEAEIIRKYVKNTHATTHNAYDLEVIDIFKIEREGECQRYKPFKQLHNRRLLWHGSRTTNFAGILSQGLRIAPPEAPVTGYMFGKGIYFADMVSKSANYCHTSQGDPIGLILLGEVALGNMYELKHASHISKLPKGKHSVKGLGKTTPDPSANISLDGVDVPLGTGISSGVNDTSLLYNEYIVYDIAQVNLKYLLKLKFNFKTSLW
PARP1;HPF1, sequence (Q9NWY4 whole entry, chain 2 of 2): as the sequence (Q9NWY4 whole entry, chain 2 of 2) above
PARP1, sequence (P09874 whole entry): as the sequence (P09874 whole entry, chain 1 of 2) above

B1: p18mer (dsDNA)
DNA 1: GGGTTGCGGCCGCTTGGG
DNA 2: CCCAAGCGGCCGCAACCC
modifications: 5'-phosphate
binds: all assays above

From paper PMC7854685, “Histone Parylation factor 1 contributes to the inhibition of PARP1 by cancer drugs”
